Consider two molecules from patent US20220251217A1 (University of California, published 2022).

For assay [1], the target named is T1, CD72-Fc (CD72 extracellular domain, aa 117-359, fused to a biotinylated human Fc domain) (human, UniProt P21854 117-359, biotinylated (on the Fc domain; site not stated)).
T1 construct: range 117-359; Expressed in mammalian cells; also called CD72-ECD-Fc protein; recombinant CD72-Fc fusion protein; not shown: human Fc domain
T1 sequence (looked up): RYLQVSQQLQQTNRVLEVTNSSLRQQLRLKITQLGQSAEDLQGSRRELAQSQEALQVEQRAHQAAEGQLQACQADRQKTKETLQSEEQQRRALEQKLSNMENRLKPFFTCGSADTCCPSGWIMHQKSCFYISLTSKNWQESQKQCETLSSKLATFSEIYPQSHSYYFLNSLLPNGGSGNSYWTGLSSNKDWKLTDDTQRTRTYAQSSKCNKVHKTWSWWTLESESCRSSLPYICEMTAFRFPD
Nature of the assay: on-yeast affinity measurement, flow cytometry, titration of CD72-Fc. The text has this:
FIG. 4a-e: Isolation of high-affinity CD72 nanobodies with yeast display (a) Schematic of workflow for in vitro anti-CD72 nanobody selection using yeast display. (b) Structure models of the recombinant Fc-fusion proteins used to perform yeast display selections. The Fc protein on the left was used to negatively select potential off-target nanobodies while the CD72-Fc protein (CD72 extracellular domain fused to a human Fc domain) was used to perform positive selection steps to isolate CD72-specific nanobodies (c) Schematic displaying the nanobody yeast display selection strategy for each MACS and FACS selection round to enrich for CD72-specific nanobody binders. Two rounds of MACS followed by four rounds of FACS with decreasing concentration of CD72 antigen produced high affinity anti-CD72 nanobodies. (d) On-yeast binding of recombinant CD72-Fc fusion protein for CD72-selected nanobodies Nb.B5 (nanobody sequence SEQ ID NO:2) and Nb.C2 (nanobody sequence SEQ ID NO:1) expressed on yeast to determine estimated binding affinities. Kd determined by curve fitting using non-linear least squares regression. (e) Flow cytometry plots of yeast clone Nb.C2 binding to 10 nM CD72-ECD-Fc protein (left) or 10 nM Fc protein (right). […]
Background: In flow cytometry, cells or beads pass a laser one at a time.

Assay [2] addresses T2, CD72-Fc (CD72 extracellular domain, aa 117-359, fused to a biotinylated human Fc domain) (human, UniProt P21854 117-359, biotinylated (on the Fc domain; site not stated)).
T2 chain: T1 sequence (looked up)
Description: on-yeast binding (yeast display flow cytometry).

B1: Nb.B5 (VHH)
VHH: QVQLQESGGGLVQAGGSLRLSCAASGTIFPVDYMGWYRQAPGKERELVAGINYGSNTYYADSVKGRFTISRDNAKNTVYLQMNSLKPEDTAVYYCAAWQPEGYAVDFYHPYWGQGTQVTVSS
Usually Kd stands for the equilibrium constant for the complex coming apart. Low readings indicate tighter binding, high ones weaker binding. Regarding B1, the binding result in assay [1] is recorded as “binds”. The molecule also had a Kd in assay [2] of 1 nM.

B2: Nb.C2 (VHH)
VHH: QVQLQESGGGLVQAGGSLRLSCAASGTIFDWYSMGWYRQAPGKERELVAGIDTGANTYYADSVKGRFTISRDNAKNTVYLQMNSLKPEDTAVYYCAAHDDGDPWHVYWGQGTQVTVSS
notes: also called yeast clone Nb.C2
With B2, in assay [1], the binding result is on record as “binds”. In addition, the Kd in assay [2] was found to be 1.5 nM.
